The text below walks through data of PMC3928684 (Biotechnology and bioengineering, 2009).

One series has as its system CCC(C)(C)C(=O)SCCC(=O)OC. Kind of series: purified protein. Type of series: biochemical, Aspergillus terreus. Particulars: MJSS fixed at 2 mM, DMB-S-MMP 0.25-5 mM; 10% DMSO.
The test system of series [1] is C[C@H]1C=C2C=C[C@H](C)[C@H](CC[C@@H](O)C[C@@H](O)CC(=O)O)[C@H]2[C@@H](O)C1. The series is described as follows: purified protein. The series is classed as biochemical, Aspergillus terreus. Particulars: DMB-S-MMP fixed at 2 mM, MJSS 0.25-5 mM; 10% DMSO.
Series [2] has as its target T1, LovD (simvastatin synthase) (Aspergillus terreus, UniProt Q9Y7D1).
T1 sequence (Q9Y7D1 1-413): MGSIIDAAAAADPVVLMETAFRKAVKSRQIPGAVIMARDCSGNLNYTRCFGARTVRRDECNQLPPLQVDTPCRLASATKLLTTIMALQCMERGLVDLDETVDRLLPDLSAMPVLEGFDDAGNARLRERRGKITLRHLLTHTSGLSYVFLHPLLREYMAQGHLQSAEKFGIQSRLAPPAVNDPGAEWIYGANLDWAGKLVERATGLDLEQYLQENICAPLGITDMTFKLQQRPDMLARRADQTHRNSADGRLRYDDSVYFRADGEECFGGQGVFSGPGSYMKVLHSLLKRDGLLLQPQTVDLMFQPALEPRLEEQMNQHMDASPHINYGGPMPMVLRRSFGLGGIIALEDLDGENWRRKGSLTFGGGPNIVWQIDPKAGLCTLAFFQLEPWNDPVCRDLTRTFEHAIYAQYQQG
Kind of series: HPLC at […] nm, conversion of MJSS to simvastatin sodium salt. The series is classed as biochemical. Particulars: read-out: Wild Type; MJSS fixed at 2 mM, DMB-S-MMP 0.25-5 mM; 10% DMSO.

Substrate in the series “purified protein”: C[C@H]1C=C2C=C[C@H](C)[C@H](CC[C@@H](O)C[C@@H](O)CC(=O)O)[C@H]2[C@@H](O)C1
The series is described as follows: purified protein. The series is classed as biochemical, Aspergillus terreus. Particulars: DMB-S-MMP fixed at 2 mM, MJSS 0.25-5 mM; 10% DMSO. This is another data set of the same source.

As for “LovD (simvastatin synthase) (Aspergillus terreus; C60A)”, the Km was found to be 580 ± 30 µM in the series on CCC(C)(C)C(=O)SCCC(=O)OC and 810 ± 190 µM in series [1]. In addition, the kcat (commonly the number of substrate molecules converted per active site and unit of time at saturation) in series [1] stood at 0.01 ± 0.00067 s⁻¹.

As for “LovD (simvastatin synthase) (Aspergillus terreus; C40A/C60N)”, the Km in the series with CCC(C)(C)C(=O)SCCC(=O)OC stood at 610 ± 30 µM; in series [1], 820 ± 100 µM. In series [1], the kcat turned out to be 0.01 ± 0.00033 s⁻¹.

On to “LovD (simvastatin synthase) (Aspergillus terreus; C40A)”, for which the Km in the series with CCC(C)(C)C(=O)SCCC(=O)OC turned out to be 630 ± 60 µM. For the same molecule, in series [1], the Km worked out at 800 ± 210 µM and the kcat was 0.0103 ± 0.00083 s⁻¹.

On to `CCC(C)(C)C(=O)SCCC(=O)OC` [DMB-S-MMP, α-dimethylbutyryl-S-methyl-3-mercaptopropionate], for which the Km in series [2] turned out to be 670 ± 40 µM.

B1: LovD (simvastatin synthase) (Aspergillus terreus) (protein)
chain: MGSIIDAAAAADPVVLMETAFRKAVKSRQIPGAVIMARDCSGNLNYTRCFGARTVRRDECNQLPPLQVDTPCRLASATKLLTTIMALQCMERGLVDLDETVDRLLPDLSAMPVLEGFDDAGNARLRERRGKITLRHLLTHTSGLSYVFLHPLLREYMAQGHLQSAEKFGIQSRLAPPAVNDPGAEWIYGANLDWAGKLVERATGLDLEQYLQENICAPLGITDMTFKLQQRPDMLARRADQTHRNSADGRLRYDDSVYFRADGEECFGGQGVFSGPGSYMKVLHSLLKRDGLLLQPQTVDLMFQPALEPRLEEQMNQHMDASPHINYGGPMPMVLRRSFGLGGIIALEDLDGENWRRKGSLTFGGGPNIVWQIDPKAGLCTLAFFQLEPWNDPVCRDLTRTFEHAIYAQYQQG
For B1, in “purified protein”, the Km came out at 780 ± 120 µM and the kcat was 0.0103 ± 0.0005 s⁻¹.
